Source: patent US20250223580

How the values were obtained:
[1] = system: N-terminal HA-tagged Csx30 alanine mutants of individual regions of the Csx29-Csx30 interface
[2] = system: Csx30 from Desulfonema ishimotonii, full length
[3] = system: HA-Csx30 S526A/Q428A/R530A/Q531A
[4] = system: TwinStrep-SUMO-Csx30 1-544 (C-terminal truncation of Csx30)
[5] = system: Csx30 fragment, residues 396-565
Chain of Csx30 fragment, residues 396-565 (chain, as listed by the source): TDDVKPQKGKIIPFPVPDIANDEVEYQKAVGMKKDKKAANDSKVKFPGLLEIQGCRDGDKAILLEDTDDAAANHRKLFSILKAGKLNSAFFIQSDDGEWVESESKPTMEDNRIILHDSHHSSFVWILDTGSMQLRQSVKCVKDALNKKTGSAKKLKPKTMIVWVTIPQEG

Chain of Csx30 from Desulfonema ishimotonii, full length (chain, as listed by the source): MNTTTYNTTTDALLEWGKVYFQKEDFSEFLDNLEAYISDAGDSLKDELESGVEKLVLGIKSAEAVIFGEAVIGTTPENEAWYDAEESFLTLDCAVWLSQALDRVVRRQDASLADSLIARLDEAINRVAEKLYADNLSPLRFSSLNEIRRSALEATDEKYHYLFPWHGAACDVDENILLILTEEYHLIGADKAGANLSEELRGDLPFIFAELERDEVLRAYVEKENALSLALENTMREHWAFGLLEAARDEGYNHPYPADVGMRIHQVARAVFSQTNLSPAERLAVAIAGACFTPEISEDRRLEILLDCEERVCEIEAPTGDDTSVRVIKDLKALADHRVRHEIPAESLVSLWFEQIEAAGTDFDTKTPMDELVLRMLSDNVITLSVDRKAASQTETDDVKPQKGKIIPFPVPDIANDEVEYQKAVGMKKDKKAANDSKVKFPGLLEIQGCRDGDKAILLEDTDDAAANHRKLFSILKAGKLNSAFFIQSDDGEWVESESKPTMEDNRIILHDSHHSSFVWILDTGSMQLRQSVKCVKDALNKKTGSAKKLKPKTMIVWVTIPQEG
Chain of TwinStrep-SUMO-Csx30 1-544 (C-terminal truncation of Csx30) (chain, as listed by the source): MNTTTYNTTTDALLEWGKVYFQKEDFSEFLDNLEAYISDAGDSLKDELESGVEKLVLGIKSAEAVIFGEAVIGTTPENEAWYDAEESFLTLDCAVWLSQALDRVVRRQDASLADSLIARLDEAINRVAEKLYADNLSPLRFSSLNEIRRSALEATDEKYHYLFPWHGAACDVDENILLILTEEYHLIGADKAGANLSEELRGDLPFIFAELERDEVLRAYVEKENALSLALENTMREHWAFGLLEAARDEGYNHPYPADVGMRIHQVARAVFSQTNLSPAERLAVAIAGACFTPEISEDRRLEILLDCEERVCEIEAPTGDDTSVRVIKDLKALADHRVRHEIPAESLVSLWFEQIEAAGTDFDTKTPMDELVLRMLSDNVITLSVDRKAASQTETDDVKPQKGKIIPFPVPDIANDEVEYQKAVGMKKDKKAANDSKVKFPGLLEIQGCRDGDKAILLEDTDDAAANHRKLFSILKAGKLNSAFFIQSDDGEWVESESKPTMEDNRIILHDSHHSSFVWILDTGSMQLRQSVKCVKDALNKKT

Substance	stated: cleaved (target-RNA-dependent cleavage of HA-Csx30, anti-HA immunoblot) (HA-Csx30 M527A)	in vitro cleavage of Csx30 alanine mutants (immunoblot) [1]	cleavage of Csx30 in in vitro reactions (immunoblot, SDS-PAGE) [2]	cleavage of Up1 within the purified Up1-Up3 complex (SDS-PAGE, Coomassie) [2]	stated: cleaved (target-RNA-dependent cleavage of HA-Csx30, anti-HA immunoblot) [2]	stated: cleaved (target-RNA-dependent cleavage of HA-Csx30, anti-HA immunoblot) [3]	stated: cleaved (target-RNA-dependent cleavage of HA-Csx30, anti-HA immunoblot) (HA-Csx30 K551A/K553A)	in vitro cleavage of truncated Csx30 (SDS-PAGE) [4]	in vitro cleavage of truncated Csx30 (SDS-PAGE) [5]	molar excess of Csx30 substrate cleaved in vitro [2]
Cas7-11-Csx29-crRNA complex	M527A: without target RNA only the upper full-length band; with target RNA the upper band is faint and a product band stands just above the 50 kDa mark	mutating individual regions of the Csx29-Csx30 interface did not significantly affect Csx30 cleavage	Csx30, is specifically cleaved in response to a target RNA	only in the lane with gRAMP-CHAT + and target RNA + do bands appear at about 50 kDa and just above 15 kDa, with a weaker Up1 band; the lanes without gRAMP-CHAT, or with gRAMP-CHAT and no target RNA, show only Up1 and Up3; the Up3 band is unchanged	Wildtype: without target RNA only the upper full-length band; with target RNA the upper band is weak and a strong product band stands just above the 50 kDa mark	S526A/Q428A/R530A/Q531A: without target RNA only the upper full-length band; with target RNA the upper band is faint and a product band stands just above the 50 kDa mark	K551A/K553A: without target RNA only the upper full-length band; with target RNA a product band just above the 50 kDa mark, and a weaker upper band remains	–	–	–
dCas7-11-Csx29-crRNA complex (Cas7-11 D429A/D654A)	–	–	–	–	–	–	–	even a twenty amino acid truncation (Csx301-544) abolished cleavage activity	Csx30 fragments containing residues 396-565 were efficiently cleaved in vitro	cleaving 100-fold molar excess of Csx30 substrate in minutes
